# Values quoted from earlier work in paper PMC3907174.
# Biological target: RBP (Homo sapiens) (UniProt P02753)
substance,measurement,value
STRA6 (from UniProt Q9BX79),Kd,0.05 µM
